The text below walks through data of article PMC3792671.

The target in the assay is RepSTK1(1-269), residues 1-269 of the rolling-circle replication initiator protein RepSTK1 of plasmid pSTK1 (Geobacillus stearothermophilus (plasmid pSTK1)). The assay can be described thus: SEC-MALS; analytical gel filtration on Superdex S75 10/300, 50 µl protein loaded, 50 mM Tris-HCl pH 7.5, 500 mM KCl; eluate through DAWN HELIOS II MALLS detector; dimer. A general note: In gel filtration, larger molecules generally elute earlier.

In the case of “RepSTK1(1-269), residues 1-269 of the rolling-circle replication initiator protein RepSTK1 of plasmid pSTK1 (domain or fragment)”, the stoichiometry N – broadly, the number of molecules, sites or subunits per partner or assembly – was 2.
